Measured values from US20100104577A1 (published 2010).
Each block holds one binder with its values, some of them ahead of it.

How the values were obtained:
Aβ1-42 = target: T1, Aβ1-42 (human, UniProt P05067 672-713); assay: pulldown of conditioned media of transfected 293T cells with fibrillar Aβ42, western blot with anti-His
T1 construct: domain: Aβ1-42; also called Aβ42; fAβ42 (fibrillar form in the pulldown)
Experimental: (§1) Fibrillar Aβ pulldown assays. One mL of conditioned media from 293T HEK cells transiently transfected with pSecTag palsmids encoding the anti-Aβ scFv was incubated with 10 μg of fibrillar Aβ40 or Aβ42 (fAβ) at 4° C. for 1 hour. The fibrils were then spun down and resuspended in SDS-PAGE loading buffer. The presence of scFv was determined by western blot with rabbit anti-His (Bethyl). To determine the Aβ40 binding properties of scFv secreted into the media, capture ELISA was used with Aβ40 peptide as capture and anti-myc-HRP, 1:2000, as detection.
(§2) Prior to testing the effects of the scFv in vivo, the anti-Aβ scFvs expressed from 293T cells were characterized.

Aβ1-40 = target: T2, Aβ1-40 (human, UniProt P05067 672-711); assay: pulldown of conditioned media of transfected 293T cells with fibrillar Aβ40, western blot with anti-His
T2 construct: domain: Aβ1-40; Used as a soluble peptide (ELISA), as fibrils (fAβ40 pulldown) and as expressed in TgBRI-Aβ40, Tg2576 and CRND8 mice (plasma complexes); also called Aβ40; human Aβ40
Experimental: as §1, §2

T2 sequence (P05067 672-711 limits assumed): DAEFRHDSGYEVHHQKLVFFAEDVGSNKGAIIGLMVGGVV
T1 sequence (P05067 672-713 limits assumed): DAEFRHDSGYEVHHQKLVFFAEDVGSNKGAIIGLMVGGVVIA

- binding result (Aβ1-42): binds
- binding result (Aβ1-40): no binding
B1: scFv42.2 (scFv)
scFv: EVQLQQSGPELVKPGASGKISCKTSGYTFSENTMHWVKQSHGKSLEWIGGINPNTGATYYNQKFKGKATLTVDTSSSTAYLELRSLTSADSAVYYCVRNGLLTLGAMDYWGQGTSVTVSSGGGGSGGGGSGGGGSDVVMTQTPLSLPVSLGDQASISCRSSQSLVHSNGNTYLYWCLQKPGQSPKLLIYKVSSRFSGVPDRFSGSGSGTDFTLKISRVEAEDLGVYFCSQSTHAPLTFGAGTKLELKR
notes: VH-linker-VL from mAb42.2; secreted from 293T HEK cells (pSecTag), detected by anti-His and anti-myc; Tested as conditioned medium; also called anti-Aβ42 specific scFv42.2

- binding result (Aβ1-40): binds
B2: scFv40.1 (scFv)
scFv: EVQLQQSGADLVKPGASVKLSCTASGFNIKATYMHWVRQRPEQGLEWIGRIDPANGDTKYDPKFQGKATLTVDTSSNTAYLQLSSLTSEDTAVYYCSTLYYREAYWGQGTLVTVSAGGGGSGGGSGGGGSDVVMTQTPLTLSVTIGQPASISCKSSQRLIYSDGKTYLNWLLQRPGQSPKRLIYLVSKLDSGVPDRFTGSGSGTDFTLKISRVEAEDLGVYYCWQGTHFPVTFGAGTKLELKR
notes: VH-linker-VL from mAb40.1; secreted from 293T HEK cells (pSecTag), detected by anti-His and anti-myc; Tested as conditioned medium
